The values below come from publication PMC9445180 (2022).

One assay addresses T1, HTRA3^PD/PDZ-LoopA^HTRA1 (human, UniProt P83110 130-160; P83110 171-453).
T1 chain: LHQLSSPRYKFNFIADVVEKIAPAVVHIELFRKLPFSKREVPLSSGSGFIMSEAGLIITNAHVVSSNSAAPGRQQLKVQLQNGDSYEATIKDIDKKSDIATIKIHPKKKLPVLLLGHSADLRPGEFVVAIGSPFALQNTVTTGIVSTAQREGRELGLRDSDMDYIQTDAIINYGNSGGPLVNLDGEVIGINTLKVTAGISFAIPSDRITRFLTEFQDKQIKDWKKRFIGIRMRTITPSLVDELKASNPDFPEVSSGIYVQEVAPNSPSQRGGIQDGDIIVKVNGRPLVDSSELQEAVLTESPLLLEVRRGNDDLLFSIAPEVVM
The assay can be described thus: SPR.

The next assay concerns the target T2, HTRA2^PD/PDZ-LoopA^HTRA1 (human, UniProt O43464 134-167; O43464 178-458).
T2 chain: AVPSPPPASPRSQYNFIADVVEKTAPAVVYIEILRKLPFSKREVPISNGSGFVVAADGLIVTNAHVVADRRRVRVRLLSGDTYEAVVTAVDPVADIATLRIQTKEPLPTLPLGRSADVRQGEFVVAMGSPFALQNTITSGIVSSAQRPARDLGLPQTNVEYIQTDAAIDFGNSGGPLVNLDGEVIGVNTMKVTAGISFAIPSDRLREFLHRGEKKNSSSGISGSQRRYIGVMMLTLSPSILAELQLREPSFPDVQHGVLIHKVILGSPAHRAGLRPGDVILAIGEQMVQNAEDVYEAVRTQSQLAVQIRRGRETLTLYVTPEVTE
The assay can be described thus: SPR. Background: SPR reads the build-up and loss of mass on a sensor chip optically.

What is called Kd is the constant that tells how readily two partners part at equilibrium. Low readings indicate higher affinity, high ones lower affinity.

B1: Fab15H6.v4 (Fab, V domains shown)
VH: EVQLVQSGAEVKKPGASVKVSCKASGYKFTDSEMHWVRQAPGQGLEWIGGVDPETEGAAYNQKFKGRATITRDTSTSTAYLELSSLRSEDTAVYYCTRGYDYDYALDYWGQGTLVTVSS
VL: DIQMTQSPSSLSASVGDRVTITCRASSSVEFIHWYQQKPGKAPKPLISATSNLASGVPSRFSGSGSGTDFTLTISSLQPEDFATYYCQQWSSAPWTFGQGTKVEIK
With B1, the Kd with HTRA3^PD/PDZ-LoopA^HTRA1 is 35.6 pM; with HTRA2^PD/PDZ-LoopA^HTRA1 it was 52.6 pM.
